Substrate in data set [1]: O=C(O)[C@@H](CO)O[C@H]1O[C@H](CO)[C@@H](O)[C@H](O)[C@H]1O
The data set can be described thus: released glucose by glucose oxidase assay; allosteric sigmoidal fit. Type of data set: biochemical, Mycolicibacterium hassiacum. The note with it: 20 mM sodium phosphate pH 6.0, 100 mM KCl, 5 mM MgCl2, 50 °C, Hill h 1.77, tag-less enzyme. The text has this:
released glucose by glucose oxidase assay; allosteric sigmoidal fit on MhGgH (M. hassiacum glucosylglycerate hydrolase)

Substrate in data set [2]: O=C(O)[C@@H](CO)O[C@H]1O[C@H](CO)[C@@H](O)[C@H](O)[C@@H]1O
The data set can be described thus: released mannose by K-MANGL assay kit; allosteric sigmoidal fit. Type of data set: biochemical, Mycolicibacterium hassiacum. Particulars: 20 mM sodium phosphate pH 6.0, 100 mM KCl, 5 mM MgCl2, 50 °C, Hill h 1.29, tag-less enzyme, rough estimation, incomplete kinetic curve. The text has this: released mannose by K-MANGL assay kit; allosteric sigmoidal fit on MhGgH (M. hassiacum glucosylglycerate hydrolase)

B1: MhGgH (M. hassiacum glucosylglycerate hydrolase) (Mycolicibacterium hassiacum DSM 44199) (protein)
chain: MPHDPSFTPTQLAARAAYLLRGNDLGTMTTAAPLLYPHMWSWDAAFVAIGLAPLSVERAVVELDTLLSAQWRNGMIPHIVFANGVDGYFPGPARWATATLADNAPRNRLTSGITQPPVHAIAVQRILEHARTRGRSTRAVAEAFLDRRWGDLMRWHRWLAECRDRNERGRITLYHGWESGMDNSPRWDSAYANVVPGKLPEYQRADNVIITDPSQRPSDGEYDRYLWLLEEMKAVRYDDERLPSVMSFQVEDVFFSAIFSVACQVLAEIGEDYKRPHADVKDLYLWAERFRAGVVETTDQRTGAARDFDVLAEKWLVTETAAQFAPLLCGGLPHDRERALLKLLEGPRFCGHPDLKYGLIPSTSPVSRDFRPREYWRGPVWPVLTWLFSWCFARRGWAERARLLRQEGLRQASDGSFAEYYEPFTGEPLGSMQQSWTAAAVLDWLG
notes: full-length from pETM11-MhGgH, N-terminal His tag removed with TEV protease leaving Gly-Ala dipeptide; E. coli BL21(DE3); homotetramer; last residue Gly446
With B1, in data set [1], the K0.5 amounted to 9.36 ± 0.69 mM and the Vmax – broadly, the top rate of the reaction or transport when substrate is in excess – was 3.6 µmol/min/mg. In data set [2], the K0.5 is 84.18 ± 30.27 mM and the Vmax is 3.09 µmol/min/mg.

Source of the values: paper PMC6608630, “The structural characterization of a glucosylglycerate hydrolase provides insights into the molecular mechanism of mycobacterial recovery from nitrogen starvation” (IUCrJ, 2019).
